Data on 55 molecules can be found in paper PMC12416549 (2024).

Positions count from the first letter of the chain named. In names and notes the source's numbering stands.

To fix the notation:
B1: D65N (designed binder)
chain: MTLQELLREEALRRAEAEAFRYALELLAEKFPEQKEYLLDLAEEIESQIRSLSGVDVEDVRKFLNKEWAWVKELLAEHPAELAEVEAARAARLAELRAEVEAKVAA
B2: E73L (designed binder)
chain: B1 chain with N65D, E73L
B3: P32F (designed binder)
chain: B1 chain with P32F, N65D
B4: S53V (designed binder)
chain: B1 chain with S53V, N65D
B5: W68R (designed binder)
chain: B1 chain with N65D, W68R
B6: E84H (designed binder)
chain: B1 chain with N65D, E84H
B7: R14E (designed binder)
chain: B1 chain with R14E, N65D
B8: A83T (designed binder)
chain: B1 chain with N65D, A83T
B9: E77T (designed binder)
chain: B1 chain with N65D, E77T
B10: R14A (designed binder)
chain: B1 chain with R14A, N65D
B11: L24Y (designed binder)
chain: B1 chain with L24Y, N65D
B12: R14D (designed binder)
chain: B1 chain with R14D, N65D
B13: A94F (designed binder)
chain: B1 chain with N65D, A94F
B14: V60W (designed binder)
chain: B1 chain with V60W, N65D
B15: L74V (designed binder)
chain: B1 chain with N65D, L74V
B16: Q4S (designed binder)
chain: B1 chain with Q4S, N65D
B17: E77F (designed binder)
chain: B1 chain with N65D, E77F
B18: A98G (designed binder)
chain: B1 chain with N65D, A98G
B19: R89T (designed binder)
chain: B1 chain with N65D, R89T
B20: E44C (designed binder)
chain: B1 chain with E44C, N65D
B21: S51Y (designed binder)
chain: B1 chain with S51Y, N65D
B22: A91W (designed binder)
chain: B1 chain with N65D, A91W
B23: L39I (designed binder)
chain: B1 chain with L39I, N65D
B24: A83D (designed binder)
chain: B1 chain with N65D, A83D
B25: L64S (designed binder)
chain: B1 chain with L64S, N65D
B26: R92L (designed binder)
chain: B1 chain with N65D, R92L
B27: W70N (designed binder)
chain: B1 chain with N65D, W70N
B28: K72Q (designed binder)
chain: B1 chain with N65D, K72Q
B29: L82M (designed binder)
chain: B1 chain with N65D, L82M
B30: E81A (designed binder)
chain: B1 chain with N65D, E81A
B31: W68G (designed binder)
chain: B1 chain with N65D, W68G
B32: E84Q (designed binder)
chain: B1 chain with N65D, E84Q
B33: A28F (designed binder)
chain: B1 chain with A28F, N65D
B34: L93S (designed binder)
chain: B1 chain with N65D, L93S
B35: E36S (designed binder)
chain: B1 chain with E36S, N65D
B36: W70Q (designed binder)
chain: B1 chain with N65D, W70Q
B37: E9A (designed binder)
chain: B1 chain with E9A, N65D
B38: A80G (designed binder)
chain: B1 chain with N65D, A80G
B39: G54F (designed binder)
chain: B1 chain with G54F, N65D
B40: A17N (designed binder)
chain: B1 chain with A17N, N65D
B41: E67Y (designed binder)
chain: B1 chain with N65D, E67Y
B42: V104C (designed binder)
chain: B1 chain with N65D, V104C
B43: D65K (designed binder)
chain: B1 chain with N65K
B44: Q34A (designed binder)
chain: B1 chain with Q34A, N65D
B45: A15C (designed binder)
chain: B1 chain with A15C, N65D
B46: Y22Q (designed binder)
chain: B1 chain with Y22Q, N65D
B47: A87D (designed binder)
chain: B1 chain with N65D, A87D
B48: E95H (designed binder)
chain: B1 chain with N65D, E95H
B49: L3Y (designed binder)
chain: B1 chain with L3Y, N65D
B50: V104E (designed binder)
chain: B1 chain with N65D, V104E
B51: D40L (designed binder)
chain: B1 chain with D40L, N65D
B52: F63S (designed binder)
chain: B1 chain with F63S, N65D
B53: E58P (designed binder)
chain: B1 chain with E58P, N65D
B54: A94N (designed binder)
chain: B1 chain with N65D, A94N
B55: A98D (designed binder)
chain: B1 chain with N65D, A98D

The test deals with T1, TNFR1 (Homo sapiens, UniProt P19438).
T1 chain: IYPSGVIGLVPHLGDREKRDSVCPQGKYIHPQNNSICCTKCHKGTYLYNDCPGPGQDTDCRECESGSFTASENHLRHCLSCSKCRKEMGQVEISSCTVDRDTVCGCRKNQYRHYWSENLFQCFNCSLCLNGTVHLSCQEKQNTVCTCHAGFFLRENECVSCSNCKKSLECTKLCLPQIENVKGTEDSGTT
The test is described as follows: yeast display SC50.
In the case of B1, the “apparent Kd (screen)” value was found to be 0.49 nM.

As to B2, the “apparent Kd (screen)” value worked out at 0.653 nM. Regarding B3, the “apparent Kd (screen)” value was 0.653 nM. As for B4, the figure is 2.48 nM; as for B5, 2.48 nM; as for B6, 0.869 nM. Under B7 stands 0.653 nM. Under B8 stands 0.593 nM; under B9, 0.49 nM. Turning to B10, the “apparent Kd (screen)” value amounted to 0.49 nM. Under B11 stands 0.539 nM. With B12, the “apparent Kd (screen)” value amounted to 0.335 nM. Under B13 stands 0.593 nM. As for B14, the figure is 0.79 nM; as for B15, 2.48 nM; as for B16, 1.16 nM. As for B17, the figure is 0.446 nM; as for B18, 0.718 nM. For B19, the “apparent Kd (screen)” value is 0.446 nM. As for B20, the figure is 20.2 nM. Under B21 stands 0.252 nM. As for B22, the figure is 0.718 nM; as for B23, 0.653 nM.

B24: the “apparent Kd (screen)” value is 0.49 nM.

With B25, the “apparent Kd (screen)” value was found to be 24.4 nM.

On to B26, for which the “apparent Kd (screen)” value amounted to 0.446 nM. As for B27, the figure is 18.3 nM.

Regarding B28, the “apparent Kd (screen)” value was found to be 0.539 nM. As for B29, the figure is 0.49 nM; as for B30, 0.718 nM. Under B31 stands 0.718 nM; under B32, 0.869 nM; under B33, 12.5 nM. As for B34, the “apparent Kd (screen)” value came to 1.05 nM. As for B35, the figure is 0.405 nM; as for B36, 15.2 nM; as for B37, 1.4 nM. In the case of B38, the “apparent Kd (screen)” value is 0.79 nM. Consider B39, for which the “apparent Kd (screen)” value was found to be 12.5 nM. As for B40, the figure is 0.593 nM. Under B41 stands 3.63 nM; under B42, 0.49 nM; under B43, 0.539 nM. Under B44 stands 0.593 nM; under B45, 0.539 nM.

Take B46: the “apparent Kd (screen)” value turned out to be 0.49 nM. As to B47, the “apparent Kd (screen)” value worked out at 0.49 nM. Under B48 stands 0.653 nM; under B49, 0.593 nM.

On to B50, for which the “apparent Kd (screen)” value stood at 0.653 nM.

For the molecule B51, the “apparent Kd (screen)” value was found to be 1.4 nM.

Regarding B52, the “apparent Kd (screen)” value is 0.956 nM. Under B53 stands 0.718 nM; under B54, 0.653 nM. On to B55, for which the “apparent Kd (screen)” value was 0.718 nM.
